Assay results from patent US20100313281A1 (published 2010).

Target: the molecule itself
Assay: western blot of BHK media, reducing (29 kDa) against non-reducing (49 kDa) conditions
Procedure: Following selection for stable cell transfectants, media isolated from pools was analyzed by western blot under reducing and non-reducing conditions using a Ztgfβ-9 antibody or an anti-EE epitope tag antibody. […] Under non-reducing conditions, Ztgfβ-9 protein migrated as at 49 kDa species. […] C-terminal EE tagged human Ztgfβ-9 expressed in BHK cells was also anti-EE affinity purified and its N-terminal sequence determined.

B1: Human Ztgfβ-9 protein (ligand)
chain: AGAPRAGRRPARPRGCADRPEELLEQLYGRLAAGVLSAFHHTLQLGPREQARNASCPAGGRPADRRFRPPTNLRSVSPWAYRISYDPARYPRYLPEAYCLCRGCLTGLFGEEDVRFRSAPVYMPTVVLRRTPACAGGRSVYTEAYVTIPVGCTCVPEPEKDADSINSSIDKQGAKLLLGPNDAPAGP
notes: also called transforming growth factor beta-9
Does B1 bind?
Result: binds
